Laboratory results: patent US20260193366A1 (APOGEE THERAPEUTICS, published 2026)

What was measured:
human IL-4Rα [1] = biological target: T1, human IL-4Rα (human, UniProt P24394 26-232); test: KinExA
T1 construct: also called Hu IL-4Rα; hIL-4Rα
T1 sequence: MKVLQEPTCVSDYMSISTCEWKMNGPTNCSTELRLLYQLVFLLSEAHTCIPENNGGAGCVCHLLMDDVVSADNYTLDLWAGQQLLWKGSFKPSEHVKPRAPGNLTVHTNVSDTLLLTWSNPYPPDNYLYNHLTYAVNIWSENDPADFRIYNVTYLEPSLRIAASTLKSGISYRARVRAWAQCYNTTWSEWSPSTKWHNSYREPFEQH
Procedure: Binding affinity (KD) of exemplary antibodies to human IL-4Rα was determined using the Kinetic Exclusion Assay (KinExA). Briefly, antibody and recombinant human IL-4Rα were equilibrated in solution. […] Samples were incubated for a time period ranging from 3.5 hours to 340 hours, to fully reach equilibrium. Once samples reached equilibrium, azlactone beads previously coated with recombinant human IL-4Rα were used to capture any free antibody from the equilibrated solution. […] The KinExA 4000 instrument was used to capture fluorescent signal and convert to a voltage signal that is directly proportional to the amount of free antibody in all the equilibrated samples, allowing for the determination of the apparent affinity of the antibody.

human IL-4Rα [2] = biological target: T1, human IL-4Rα; test: SPR, Carterra LSA;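 note: antibodies captured on an anti-human Fc sensor chip, antigen injected at several concentrations, association and dissociation rates fitted with a 1:1 Langmuir model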
cynomolgus monkey IL-4Rα = biological target: T2, cynomolgus monkey IL-4Rα (cynomolgus monkey, UniProt P24394 26-231 (human entry), limits assumed); test: SPR, Carterra LSA;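 note: antibodies captured on an anti-human Fc sensor chip, antigen injected at several concentrations, association and dissociation rates fitted with a 1:1 Langmuir model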
T2 construct: also called Cyno IL-4Rα; cyIL-4Rα
T2 chain: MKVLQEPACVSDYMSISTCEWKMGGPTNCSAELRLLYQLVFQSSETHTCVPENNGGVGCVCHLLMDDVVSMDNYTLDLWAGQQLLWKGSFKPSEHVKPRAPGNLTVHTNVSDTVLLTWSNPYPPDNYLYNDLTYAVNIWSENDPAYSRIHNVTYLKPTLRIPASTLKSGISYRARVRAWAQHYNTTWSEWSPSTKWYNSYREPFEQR

hIL-4Rα on cells [3] = biological target: T3, hIL-4Rα on cells (human, UniProt P24394 26-825); test: cell-based or functional assay
T3 sequence: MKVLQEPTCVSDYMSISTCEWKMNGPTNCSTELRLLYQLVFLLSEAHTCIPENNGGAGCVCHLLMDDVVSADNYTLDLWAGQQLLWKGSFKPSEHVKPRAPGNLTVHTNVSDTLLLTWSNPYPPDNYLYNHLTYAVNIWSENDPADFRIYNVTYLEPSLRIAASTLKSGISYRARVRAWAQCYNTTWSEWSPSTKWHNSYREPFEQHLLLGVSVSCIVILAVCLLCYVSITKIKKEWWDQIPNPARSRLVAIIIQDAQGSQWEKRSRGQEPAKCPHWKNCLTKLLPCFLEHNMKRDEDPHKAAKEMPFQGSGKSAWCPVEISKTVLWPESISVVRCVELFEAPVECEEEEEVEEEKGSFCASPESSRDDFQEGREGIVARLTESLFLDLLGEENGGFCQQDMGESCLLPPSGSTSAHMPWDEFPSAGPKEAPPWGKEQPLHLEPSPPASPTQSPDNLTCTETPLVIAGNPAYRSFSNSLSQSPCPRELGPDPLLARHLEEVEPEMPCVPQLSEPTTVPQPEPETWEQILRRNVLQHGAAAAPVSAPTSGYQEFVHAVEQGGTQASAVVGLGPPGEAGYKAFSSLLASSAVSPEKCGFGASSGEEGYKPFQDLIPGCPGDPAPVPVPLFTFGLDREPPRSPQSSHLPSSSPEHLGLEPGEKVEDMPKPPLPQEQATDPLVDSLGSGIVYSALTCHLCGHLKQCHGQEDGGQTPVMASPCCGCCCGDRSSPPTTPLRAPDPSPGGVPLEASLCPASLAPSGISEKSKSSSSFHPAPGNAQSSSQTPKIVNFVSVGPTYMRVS

hIL-4Rα on cells [4] = biological target: T3, hIL-4Rα on cells; test: cell-based or functional assay; remark: listed apart in the source
hIL-4Rα on cells [5] = biological target: T3, hIL-4Rα on cells; test: cell-based or functional assay; remark: listed apart in the source
hIL-4Rα on cells [6] = biological target: T3, hIL-4Rα on cells; test: FACS on HEK293 cells, competitor biotin-hIL-4;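 for Relative Blockade of IL-4 Binding IC50: HEK293 cells stably co-expressing hIL-13Rα and hIL-4Rα, stained for 1 h at 4 °C, read-out as mean fluorescence intensity by flow cytometry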
Procedure: (§1) Briefly, HEK293 previously transduced to stably express both hIL-13Rα and hIL-4Rα were cultured and harvested. Cells were seeded at 200,000 cells in 100 uL per well. Cells were washed and the supernatant discarded. […] The cells were stained in this mixture at 4° C. for 1 hour. […] Cells were incubated 4° C. for 1 hour, protected from light. Cells were then washed and the MFI of cells in each well were recorded by FACS using a BD FACSCanto II. Subsequent data were analyzed using GraphPad Prism.

hIL-4Rα on cells [7] = biological target: T3, hIL-4Rα on cells; test: FACS on HEK293 cells, competitor biotin-hIL-13;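 for Relative Blockade of IL-13 Binding IC50: stably transduced cells co-expressing both receptor chains, stained cold, with cell-bound signal read as mean fluorescence intensity by flow cytometry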
hIL-4Rα on cells [8] = biological target: T3, hIL-4Rα on cells; test: cell-based or functional assay; remark: listed apart in the source
hIL-4Rα on cells [9] = biological target: T3, hIL-4Rα on cells; test: cell-based or functional assay; remark: listed apart in the source
hIL-4Rα on cells [10] = biological target: T3, hIL-4Rα on cells; test: cell-based or functional assay; remark: listed apart in the source
hIL-4Rα on cells [11] = biological target: T3, hIL-4Rα on cells; test: FACS on HEK293 cells, competitor biotin-hIL-4; remark: listed apart in the source;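 for Relative Blockade of IL-4 Binding IC50: HEK293 cells stably co-expressing hIL-13Rα and hIL-4Rα, stained for 1 h at 4 °C, read-out as mean fluorescence intensity by flow cytometry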
Procedure: as §1
(§2) The values reflect absolute IC₅₀ measurements.

hIL-4Rα on cells [12] = biological target: T3, hIL-4Rα on cells; test: FACS on HEK293 cells, competitor biotin-hIL-13; remark: listed apart in the source;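 for Relative Blockade of IL-13 Binding IC50: stably transduced cells co-expressing both receptor chains, stained cold, with cell-bound signal read as mean fluorescence intensity by flow cytometry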
Procedure: as §1, §2

| Binder | KD Relative to Dupilumab (human IL-4Rα [1]) | Kd (human IL-4Rα [1]) [pM] | KD Relative to Dupilumab (human IL-4Rα [2]) | Kd (human IL-4Rα [2]) [pM] | KD Relative to Dupilumab (cynomolgus monkey IL-4Rα) | Kd (cynomolgus monkey IL-4Rα) [pM] | Relative Inhibition of IL-4 induced pSTAT6 IC50 (hIL-4Rα on cells [3]) | Relative Inhibition of IL-13 induced pSTAT6 IC50 (hIL-4Rα on cells [3]) | Relative Inhibition of IL-4 induced TARC IC50 (hIL-4Rα on cells [4]) | Relative Inhibition of IL-13 induced TARC IC50 (hIL-4Rα on cells [4]) | Relative Inhibition of IL-4 induced TF-1 Proliferation IC50 (hIL-4Rα on cells [5]) | Relative Inhibition of IL-13 induced TF-1 Proliferation IC50 (hIL-4Rα on cells [5]) | Relative Blockade of IL-4 Binding IC50 (hIL-4Rα on cells [6]) | Relative Blockade of IL-13 Binding IC50 (hIL-4Rα on cells [7]) | further results |
| --- | --- | --- | --- | --- | --- | --- | --- | --- | --- | --- | --- | --- | --- | --- | --- |
| Construct 13 (mAb422) (antibody, IgG4, V domains shown, VH/VL only) VH: EVQLVESGGGLEQPGGSLRLSCAGSGFTFRDFAMTWVRQAPGKGLEWVSSVSGSGGNTYYADSVKGRFTISRDNSKNTLYLQMNSLRAEDTAVYYCAKDRLSVTVRPRYYGLDVWGQGTTVTVSS VL: DIVMTQSPLSLPVTPGEPASISCRSSQSVLYSIGYNYVDWYLQKSGQSPQLLIYLGNKRASGVPDRFSGSGSGTDFTLKISRVEAEDVGFYYCMQSLTSPYTFGQGTKLEIK | 0.267 | 0.299 | 0.65 | 7.37 | 0.02 | 12600 | 0.415 relative to dupilumab | 0.824 relative to dupilumab | 0.507 relative to dupilumab | 1.01 relative to dupilumab | 0.675 relative to dupilumab | 0.794 relative to dupilumab | 1.02 relative to dupilumab | 0.882 relative to dupilumab | – |
| Construct 15 (mAb423) (antibody, IgG4, V domains shown, VH/VL only) VH: EVQLVESGGGLEQPGGSLRLSCAGSGFTFRDFAMTWVRQAPGKGLEWVSSISGSGGNIYYADSVKGRFTISRDNSKNTLYLQMNSLRAEDTAVYYCAKDRLSKTIRPRYYGLDVWGQGTTVTVSS VL: DIVMTQSPLSLPVTPGEPASISCTASQSLLYSIGYNYVDWYLQKSGQSPQLLIYLGNKRASGVPDRFSGSGSGTDFTLKISRVEAEDVGFYYCMQSLTSPYTFGQGTKLEIK | 0.01 | 0.0109 | 1.21 | 13.7 | 0.04 | 24600 | 0.285 relative to dupilumab | 0.468 relative to dupilumab | 0.453 relative to dupilumab | 0.35 relative to dupilumab | 0.281 relative to dupilumab | 0.71 relative to dupilumab | 0.66 relative to dupilumab | 0.876 relative to dupilumab | – |
| Construct 24 (mAb432) (antibody, IgG4, V domains shown, VH/VL only) VH: EVQLVESGGGLEQPGGSLRLSCAGSGFTFRDFAMTWVRQAPGKGLEWVSSISGSGGNIYYADSVKGRFTISRDNSKNTLYLQMNSLRAEDTAVYYCAKDRLSIAVRPRYYGLDVWGQGTTVTVSS VL: DIVMTQSPLSLPVTPGEPASISCTASQSLLYSIGKNYVDWYLQKSGQSPQLLIYLGNNRATGVPDRFSGSGSGTDFTLKISRVEAEDVGFYYCMQSLTSPYTFGQGTKLEIK | 0.105 | 0.118 | 0.79 | 8.91 | 0.11 | 66900 | 0.629 relative to dupilumab | 0.586 relative to dupilumab | 0.445 relative to dupilumab | 0.594 relative to dupilumab | 1.03 relative to dupilumab | 0.693 relative to dupilumab | 0.973 relative to dupilumab | 0.825 relative to dupilumab | – |
| Construct 31 (mAb443) (antibody, IgG4, V domains shown, VH/VL only) VH: EVQLVESGGGLEQPGGSLRLSCAGSGFTFRDFAMTWVRQAPGKGLEWVSSISGSGGNIYYADSVKGRFTISRDNSKNTLYLQMNSLRAEDTAVYYCAKDRLSVTVRPRYYGLDVWGQGTTVTVSS VL: DIVMTQSPLSLPVTPGEPASISCRSSQSLLYSNGYNYLDWYLQKSGQSPQLLIYLGSNRASGVPDRFSGSGSGTDFTLKISRVEAEDVGFYYCMQALQAPYTFGQGTKLEIK | 0.252 | 0.282 | 0.73 | 8.29 | 0.67 | 421000 | 1.23 relative to dupilumab | 1.61 relative to dupilumab | 1.37 relative to dupilumab | 0.703 relative to dupilumab | 1.25 relative to dupilumab | 1.24 relative to dupilumab | 1.01 relative to dupilumab | 0.964 relative to dupilumab | – |
| Construct 38 (mAb471) (antibody, IgG4, V domains shown, VH/VL only) VH: EVQLVESGGGLEQPGGSLRLSCAGSGFTFRDFAMTWVRQAPGKGLEWVSSISGSGGNIYYADSVKGRFTISRDNSKNTLYLQMNSLRAEDTAVYYCAKDRLSVTVRPRYYGLDVWGQGTTVTVSS VL: DIVMTQSPLSLPVTPGEPASISCRSSQSLLYSIGKNYVDWYLQKSGQSPQLLIYEGNKRASGVPDRFSGSGSGTDFTLKISRVEAEDVGFYYCMQSLTSPYTFGQGTKLEIK | 0.376 | 0.421 | 0.52 | 5.89 | 0.4 | 249000 | 0.723 relative to dupilumab | 1.56 relative to dupilumab | 1.17 relative to dupilumab | 1.63 relative to dupilumab | 1.04 relative to dupilumab | 1.2 relative to dupilumab | 0.981 relative to dupilumab | 0.996 relative to dupilumab | – |
| Construct 38 (mAb471) with IgG1 YTE LALA heavy chain constant region (antibody, V domains shown) VH: EVQLVESGGGLEQPGGSLRLSCAGSGFTFRDFAMTWVRQAPGKGLEWVSSISGSGGNIYYADSVKGRFTISRDNSKNTLYLQMNSLRAEDTAVYYCAKDRLSVTVRPRYYGLDVWGQGTTVTVSS VL: DIVMTQSPLSLPVTPGEPASISCRSSQSLLYSIGKNYVDWYLQKSGQSPQLLIYEGNKRASGVPDRFSGSGSGTDFTLKISRVEAEDVGFYYCMQSLTSPYTFGQGTKLEIK | – | – | – | – | – | – | – | – | – | – | – | – | – | – | Inhibition of IL-4 induced pSTAT6 IC50 (hIL-4Rα on cells [8]): 0.248 nM; Inhibition of IL-13 induced pSTAT6 IC50 (hIL-4Rα on cells [8]): 1.05 nM; Inhibition of IL-4 induced TARC IC50 (hIL-4Rα on cells [9]): 259 pM; Inhibition of IL-13 induced TARC IC50 (hIL-4Rα on cells [9]): 527 pM; Inhibition of IL-4 induced TF-1 Proliferation IC50 (hIL-4Rα on cells [10]): 52 pM; Inhibition of IL-13 induced TF-1 Proliferation IC50 (hIL-4Rα on cells [10]): 161 pM; IC50 (hIL-4Rα on cells [11]): 271 pM; IC50 (hIL-4Rα on cells [12]): 226 pM |
| Construct 32 (mAb446) (antibody, IgG4, V domains shown, VH/VL only) VH: EVQLVESGGGLEQPGGSLRLSCAGSGFTFRDFAMTWVRQAPGKGLEWVSSVSGDGGNTYYADSVKGRFTISRDNSKNTLYLQMNSLRAEDTAVYYCAKDRLSVTVRPRYYGLDVWGQGTTVTVSS VL: DIVMTQSPLSLPVTPGEPASISCRSSQSLLYSNGYNYLDWYLQKSGQSPQLLIYLSSNRASGVPDRFSGSGSGTDFTLKISRVEAEDVGFYYCMQAFQAPYTFGQGTKLEIK | – | – | 1.04 | 11.8 | 1.58 | 993000 | 1.68 relative to dupilumab | 4.76 relative to dupilumab | 4.36 relative to dupilumab | 2.4 relative to dupilumab | 1.74 relative to dupilumab | 2.01 relative to dupilumab | 1.36 relative to dupilumab | 1.14 relative to dupilumab | – |
